Data from the Human Domainome abundance scans (Beltran et al. 2025).
± gives the uncertainty stated by the source.

B1: PMS1 protein homolog 1, residues 572 to 637; numbered along this chain, P54277 (parent)
chain: KKPMSASALFVQDHRPQFLIENPKTSLEDATLQIEELWKTLSEEEKLKYEEKATKDLERYNSQMKR

Variants of: B1
Test: abundance fitness (aPCA) (normalised: wild type 0, dead -1); higher = more abundant; growth selection in yeast, the domain comes from the species named
Settings: Homo sapiens

YKPMSASALFVQDHRPQFLIENPKTSLEDATLQIEELWKTLSEEEKLKYEEKATKDLERYNSQMKR [K1Y] and KKPMSASALFVQDHRPQFLIENPKTSLEDATLQIEELWKTLSEEEKLKYEEKATKDLERYNSPMKR [Q63P] are within error of each other in abundance fitness: -0.174 ± 0.3 for the first, -0.262 ± 0.098 for the second.

KKPMSASALFVQDHRPQFLIENPKTSLEDATLQIEELWKTLSEEEKLKYEEKATKDLERYNSSMKR [Q63S] and KKPMSASALFVQDHRPQFLIENPKTSLEDATLQIEELWKTLSEEEKLKYEEKATKDLERYNSGMKR [Q63G] are within error of each other in abundance fitness: -0.207 ± 0.1 for the first, -0.093 ± 0.074 for the second.

First: KKPMSASALFVQDHRPQFLIENPKTSLEDATLQIEELWKTLSEEEKLKYEEKATKDLERYNSVMKR [Q63V]
Second: KKPMSASALFVQDHRPQFLIENPKTSLEDATLQIEELWKTLSEEEKLKYEEKATKDLERYNSAMKR [Q63A]
The abundance fitness of the first is lower: -0.113 ± 0.061 for the first, 0.071 ± 0.079 for the second.

KKPMSASALFVQDHRPQFLIENPKTSLEDATLQIEELWKTLSEEEKLKYEEKATKDLERYNSQMKL [R66L] and KKPMSASALFVQDHRPQFLIENPKTSLEDATLQIEELWKTLSEEEKLKYEEKATKDLERYNSQMKG [R66G] are within error of each other in abundance fitness: 0.012 ± 0.088 for the first, 0.054 ± 0.11 for the second.

First: KKPMSASALFVQDHRPQFLIENPKTSLEDATLQIEELWKTLSEEEKLKYEEKATKDLERYNSQMKA [R66A]
Second: KKPMSASALFVQDHRPQFLIENPKTSLEDATLQIEELWKTLSEEEKLKYEEKATKDLERYNSQMKW [R66W]
The abundance fitness of the first is higher: 0.067 ± 0.082 for the first, -0.261 ± 0.17 for the second.

First: KKPMSASALFVQDHRPQFLIENPKTSLEDATLQIEELWKTLSEEEKLKYEEKATKDLERYNSQMKI [R66I]
Second: KKPMSASALFVQDHRPQFLIENPKTSLEDATLQIEELWKTLSEEEKLKYEEKATKDLEMYNSQMKR [R59M]
The abundance fitness of the first is lower: -0.697 ± 0.43 for the first, -0.046 ± 0.075 for the second.

First: KKPMSTSALFVQDHRPQFLIENPKTSLEDATLQIEELWKTLSEEEKLKYEEKATKDLERYNSQMKR [A6T]
Second: KKPMSWSALFVQDHRPQFLIENPKTSLEDATLQIEELWKTLSEEEKLKYEEKATKDLERYNSQMKR [A6W]
The abundance fitness of the first is higher: -0.646 ± 0.12 for the first, -1.87 ± 0.29 for the second.

KKPMSDSALFVQDHRPQFLIENPKTSLEDATLQIEELWKTLSEEEKLKYEEKATKDLERYNSQMKR [A6D] and KKPMSYSALFVQDHRPQFLIENPKTSLEDATLQIEELWKTLSEEEKLKYEEKATKDLERYNSQMKR [A6Y] are within error of each other in abundance fitness: -0.665 ± 0.25 for the first, -0.925 ± 0.45 for the second.

KKPMSASALFVQDHRPQFLIENPKTSLEDATLQIEELWKTLSEEEKLKYEEKATKDWERYNSQMKR [L57W] and KKPMSASALFVQDHRPQFLIENPKTSLEDATLQIEELWKTLSEEEKLKYEEKATKDHERYNSQMKR [L57H] are within error of each other in abundance fitness: -0.103 ± 0.088 for the first, -0.112 ± 0.15 for the second.

Compared with KKPMSASALFVQDHRPQFLIENPKTSLEDATLQIEELWKTLVEEEKLKYEEKATKDLERYNSQMKR [S42V], KKPMSASALFVQDHRPQFLIENPKTSLEDATLQIEELWKTLKEEEKLKYEEKATKDLERYNSQMKR [S42K] is higher in abundance fitness: -0.56 ± 0.067 for the first, -0.072 ± 0.073 for the second.

KKPMSASALFVQDHRPQFLIENPKTSLEDATLQIEELWKTLREEEKLKYEEKATKDLERYNSQMKR [S42R] and KKPMSASALFVQDHRPQFLIENPKTSLEDATLQIEELWKTLGEEEKLKYEEKATKDLERYNSQMKR [S42G] are within error of each other in abundance fitness: -0.24 ± 0.051 for the first, -0.165 ± 0.066 for the second.

KKPMSASRLFVQDHRPQFLIENPKTSLEDATLQIEELWKTLSEEEKLKYEEKATKDLERYNSQMKR [A8R] and KKPMSASAKFVQDHRPQFLIENPKTSLEDATLQIEELWKTLSEEEKLKYEEKATKDLERYNSQMKR [L9K] are within error of each other in abundance fitness: -0.119 ± 0.093 for the first, -0.044 ± 0.19 for the second.

KKPMSASALFVQDHRTQFLIENPKTSLEDATLQIEELWKTLSEEEKLKYEEKATKDLERYNSQMKR [P16T] and KKPMSASALFVQDHRWQFLIENPKTSLEDATLQIEELWKTLSEEEKLKYEEKATKDLERYNSQMKR [P16W] are within error of each other in abundance fitness: -0.159 ± 0.25 for the first, -0.421 ± 0.17 for the second.

Compared with KKPMSASALFVQDHRPQFLIENPKTSLEDATLQIEELWKTLSEEEKLKYEEFATKDLERYNSQMKR [K52F], KKPMKASALFVQDHRPQFLIENPKTSLEDATLQIEELWKTLSEEEKLKYEEKATKDLERYNSQMKR [S5K] is higher in abundance fitness: -0.507 ± 0.092 for the first, -0.179 ± 0.12 for the second.

Compared with KKPMSASALFVQDHRPQFLIENPKTSLEDATLQIEELWKTLSEEEKLKLEEKATKDLERYNSQMKR [Y49L], KKPMSASALFVQDHRPQFLIENPKTSLEDATLQIEELWKTLSEEEKLKREEKATKDLERYNSQMKR [Y49R] is higher in abundance fitness: -0.92 ± 0.081 for the first, -0.516 ± 0.081 for the second.

Going from KKNMSASALFVQDHRPQFLIENPKTSLEDATLQIEELWKTLSEEEKLKYEEKATKDLERYNSQMKR [P3N] to KKPMSASALFVQDHRPQFLIENPKTSLEDATLQIEELWKTLSEEESLKYEEKATKDLERYNSQMKR [K46S], the abundance fitness falls from 0.031 ± 0.25 to -0.641 ± 0.066.

KKPMSASALFVQDHRPQFLIENPKTSLEDATLQIEELWKTLSEEEKLKYELKATKDLERYNSQMKR [E51L] and KKPMSASALFVQDHRPQFLIENPKTSLEDATLQIEELWKTLSEEEKLKYEIKATKDLERYNSQMKR [E51I] are within error of each other in abundance fitness: -0.048 ± 0.052 for the first, -0.127 ± 0.067 for the second.

KMPMSASALFVQDHRPQFLIENPKTSLEDATLQIEELWKTLSEEEKLKYEEKATKDLERYNSQMKR [K2M] and KKPMSASALFVQDHRPQFLIENPKTSLEDATLAIEELWKTLSEEEKLKYEEKATKDLERYNSQMKR [Q33A] are within error of each other in abundance fitness: -0.321 ± 0.16 for the first, -0.05 ± 0.12 for the second.

KKPMSASALFVQDHRPQFLIENPKTSLEDATLMIEELWKTLSEEEKLKYEEKATKDLERYNSQMKR [Q33M] and KKPMSASALFVQDHRPQFLIENPKTSLEDATLQIEELTKTLSEEEKLKYEEKATKDLERYNSQMKR [W38T] are within error of each other in abundance fitness: -0.283 ± 0.11 for the first, -0.343 ± 0.19 for the second.

Compared with KKPMSASALFVQDHRPQFLIENPKTSLEDATLQIEELHKTLSEEEKLKYEEKATKDLERYNSQMKR [W38H], KKPMSASALFVQDHGPQFLIENPKTSLEDATLQIEELWKTLSEEEKLKYEEKATKDLERYNSQMKR [R15G] is lower in abundance fitness: 0.034 ± 0.26 for the first, -0.559 ± 0.075 for the second.

Variant KKPMSASALFVQDHPPQFLIENPKTSLEDATLQIEELWKTLSEEEKLKYEEKATKDLERYNSQMKR [R15P] has an abundance fitness of -0.541 ± 0.14.
